# In the Immune Epitope Database (IEDB):
# Key:
# HLA-B*07:02 [1] = test: IEDB peptide-MHC binding, purified MHC/competitive/radioactivity; filed as Kd, often an IC50 or EC50 that approximates it; ≥ and ≤ were set here for values at or beyond the usual limits of such assays
# HLA-B*35:01 = test: as above
# HLA-B*51:01 = test: as above
# HLA-B*53:01 = test: as above
# HLA-B*54:01 = test: as above
# HLA-A*01:01 [2] = test: IEDB peptide-MHC binding, purified MHC/competitive/fluorescence; filed as Kd, often an IC50 or EC50 that approximates it; ≥ and ≤ were set here for values at or beyond the usual limits of such assays
# HLA-A*03:01 [3] = test: as above
# HLA-A*11:01 [4] = test: IEDB peptide-MHC binding, purified MHC/competitive/fluorescence; ≥ and ≤ were set here for values at or beyond the usual limits of such assays
# HLA-A*01:01 [5] = test: IEDB peptide-MHC binding, purified MHC/direct/fluorescence; filed as Kd, often an IC50 or EC50 that approximates it; ≥ and ≤ were set here for values at or beyond the usual limits of such assays; details: source organism: Camelpox virus M-96
# HLA-A*02:01 [6] = test: as above; details: source organism: Camelpox virus M-96
# HLA-A*11:01 [7] = test: as above
# HLA-A*31:01 [8] = test: as above; details: source organism: Camelpox virus M-96
# HLA-A*68:02 [9] = test: as above; details: source organism: Camelpox virus M-96
# HLA-A*69:01 = test: as above; details: source organism: Camelpox virus M-96
# HLA-B*07:02 [10] = test: as above; details: source organism: Camelpox virus M-96
# HLA-B*15:17 = test: as above; details: source organism: Camelpox virus M-96
# HLA-B*18:01 = test: as above
# HLA-B*27:05 = test: as above; details: source organism: Camelpox virus M-96
# HLA-B*40:01 = test: as above; details: source organism: Camelpox virus M-96
# HLA-B*44:02 = test: as above; details: source organism: Camelpox virus M-96
# HLA-B*48:01 = test: as above; details: source organism: Camelpox virus M-96
# HLA-B*57:01 = test: as above; details: source organism: Camelpox virus M-96
# HLA-B*58:01 = test: as above; details: source organism: Camelpox virus M-96
# HLA-A*24:02 = test: IEDB peptide-MHC binding, purified MHC/competitive/fluorescence; ≥ and ≤ were set here for values at or beyond the usual limits of such assays
# HLA-B*15:01 = test: as above
# HLA-A*02:01 [11] = test: as above
# HLA-A*03:01 [12] = test: IEDB peptide-MHC binding, purified MHC/direct/fluorescence; filed as Kd, often an IC50 or EC50 that approximates it; ≥ and ≤ were set here for values at or beyond the usual limits of such assays
# HLA-A*31:01 [13] = test: IEDB peptide-MHC binding, purified MHC/competitive/fluorescence; filed as Kd, often an IC50 or EC50 that approximates it; ≥ and ≤ were set here for values at or beyond the usual limits of such assays
# HLA-A*02:11 = test: IEDB peptide-MHC binding, purified MHC/direct/fluorescence; filed as Kd, often an IC50 or EC50 that approximates it; ≥ and ≤ were set here for values at or beyond the usual limits of such assays; details: source organism: Dengue virus 2 Thailand/16681/84
# HLA-A*02:12 = test: as above; details: source organism: Dengue virus 2 Thailand/16681/84
# HLA-B*15:42 = test: IEDB peptide-MHC binding, purified MHC/competitive/fluorescence; filed as Kd, often an IC50 or EC50 that approximates it; ≥ and ≤ were set here for values at or beyond the usual limits of such assays
# HLA-B*45:06 = test: as above
# HLA-B*83:01 = test: as above
# HLA-A*03:01 [14] = test: IEDB peptide-MHC binding, purified MHC/competitive/fluorescence; ≥ and ≤ were set here for values at or beyond the usual limits of such assays; details: source organism: Sudan ebolavirus
# HLA-A*68:02 [15] = test: IEDB peptide-MHC binding, purified MHC/competitive/fluorescence; filed as Kd, often an IC50 or EC50 that approximates it; ≥ and ≤ were set here for values at or beyond the usual limits of such assays; details: source organism: Toxoplasma gondii
# [16] = source organism: SARS coronavirus Tor2
# [17] = source organism: Mammarenavirus choriomeningitidis
# [18] = source organism: Vibrio vulnificus YJ016
# [19] = source organism: Vaccinia virus WR
# [20] = source organism: Sudan ebolavirus
# [21] = source organism: Camelpox virus M-96
# [22] = source organism: Vaccinia virus Copenhagen
# [23] = source organism: Zaire ebolavirus
# [24] = source organism: Vibrio vulnificus
# [25] = source organism: Triticum aestivum
# [26] = source organism: Mammarenavirus lassaense
# [27] = source organism: Lassa virus GA391
# [28] = source organism: Rickettsia massiliae
# [29] = source organism: Salmonella enterica
# [30] = source organism: West Nile virus
# [31] = source organism: Yellow fever virus
# [32] = source organism: Mammarenavirus juninense
# [33] = source organism: Lymphocytic choriomeningitis virus (strain Armstrong)
# [34] = source organism: Vibrio cholerae RC385
sequence,measurement,setting,value
VPMEKLKAL,Kd,HLA-B*07:02 [1]; [16],0.0135 µM
same,Kd,HLA-B*35:01; [16],6.61 µM
same,Kd,HLA-B*51:01; [16],2.18 µM
same,Kd,HLA-B*53:01; [16],≥ 39.4 µM
same,Kd,HLA-B*54:01; [16],11.7 µM
MPSEDGAEDL,Kd,HLA-B*07:02 [1]; [17],1.86 µM
same,Kd,HLA-B*35:01; [17],0.148 µM
same,Kd,HLA-B*51:01; [17],≥ 69.6 µM
same,Kd,HLA-B*53:01; [17],0.903 µM
same,Kd,HLA-B*54:01; [17],≥ 69.9 µM
FTSFFYRY,Kd,HLA-A*01:01 [2]; source organism: Influenza A virus (A/Fort Monmouth/1/1947-mouse adapted(H1N1)),1.28 µM
ITHPKYRKH,Kd,HLA-A*03:01 [3]; [18],≥ 20 µM
VPNITISSNA,Kd,HLA-B*07:02 [1]; [19],4.2 µM
same,Kd,HLA-B*35:01; [19],≥ 69.9 µM
same,Kd,HLA-B*51:01; [19],≥ 69.6 µM
same,Kd,HLA-B*53:01; [19],≥ 69.9 µM
same,Kd,HLA-B*54:01; [19],0.0166 µM
DAASSRITK,IC50,HLA-A*11:01 [4]; [20],≥ 121 µM
YERGNIIIF,Kd,HLA-A*01:01 [5],≥ 20 µM
same,Kd,HLA-A*02:01 [6],≥ 20 µM
same,Kd,HLA-A*11:01 [7]; [21],≥ 20 µM
same,Kd,HLA-A*31:01 [8],≥ 20 µM
same,Kd,HLA-A*68:02 [9],≥ 20 µM
same,Kd,HLA-A*69:01,≥ 20 µM
same,Kd,HLA-B*07:02 [10],≥ 20 µM
same,Kd,HLA-B*15:17,≥ 20 µM
same,Kd,HLA-B*18:01; [21],0.0319 µM
same,Kd,HLA-B*27:05,≥ 20 µM
same,Kd,HLA-B*40:01,0.154 µM
same,Kd,HLA-B*44:02,≥ 20 µM
same,Kd,HLA-B*48:01,≥ 20 µM
same,Kd,HLA-B*57:01,≥ 20 µM
same,Kd,HLA-B*58:01,≥ 20 µM
IMLEGETKL,IC50,HLA-A*24:02; [22],47.2 µM
same,IC50,HLA-B*15:01; [22],42.5 µM
LPIFSDAAL,Kd,HLA-B*07:02 [1]; [17],0.0221 µM
same,Kd,HLA-B*35:01; [17],0.0133 µM
same,Kd,HLA-B*51:01; [17],≥ 64.1 µM
same,Kd,HLA-B*53:01; [17],0.0641 µM
same,Kd,HLA-B*54:01; [17],1 µM
NTIAGVAGL,IC50,HLA-A*02:01 [11]; [23],32 µM
same,IC50,HLA-A*11:01 [4]; [23],≥ 144 µM
EAIVNAQPK,IC50,HLA-A*11:01 [4]; [23],34.9 µM
same,IC50,HLA-A*24:02; [23],28.4 µM
ASILSRMAY,Kd,HLA-A*03:01 [12]; [24],0.974 µM
same,Kd,HLA-A*11:01 [7]; [24],0.0074 µM
same,Kd,HLA-A*31:01 [13]; [18],≥ 20 µM
RPKILSMINY,Kd,HLA-B*07:02 [1]; [19],3.17 µM
same,Kd,HLA-B*35:01; [19],5.74 µM
same,Kd,HLA-B*51:01; [19],8.9 µM
same,Kd,HLA-B*53:01; [19],1.12 µM
same,Kd,HLA-B*54:01; [19],2.92 µM
AVSSGKNIK,IC50,HLA-A*02:01 [11]; [23],≥ 164 µM
same,IC50,HLA-A*11:01 [4]; [23],55.3 µM
NPLPNQDND,IC50,HLA-A*11:01 [4]; [20],≥ 163 µM
KVHAVLTEH,Kd,HLA-A*03:01 [3]; source organism: Brucella abortus 2308,0.0944 µM
QPYPQSQPQY,Kd,HLA-B*07:02 [1]; [25],≥ 69.6 µM
same,Kd,HLA-B*35:01; [25],0.323 µM
same,Kd,HLA-B*51:01; [25],≥ 69.6 µM
same,Kd,HLA-B*53:01; [25],≥ 21.2 µM
same,Kd,HLA-B*54:01; [25],≥ 69.9 µM
MTMPLSCTK,Kd,HLA-A*03:01 [12]; [26],0.622 µM
same,Kd,HLA-A*11:01 [7]; [26],0.0023 µM
same,Kd,HLA-A*31:01 [13]; [27],0.671 µM
TTITGDSAY,Kd,HLA-A*01:01 [2]; source organism: Salmonella enterica subsp. enterica serovar Typhi,4 µM
LPFHRWHTMV,Kd,HLA-B*07:02 [1]; [16],0.462 µM
same,Kd,HLA-B*35:01; [16],7.51 µM
same,Kd,HLA-B*51:01; [16],1.15 µM
same,Kd,HLA-B*53:01; [16],18.7 µM
same,Kd,HLA-B*54:01; [16],0.0284 µM
MGFGHRIYK,Kd,HLA-A*03:01 [12]; [28],0.0037 µM
same,Kd,HLA-A*11:01 [7]; [28],0.0032 µM
same,Kd,HLA-A*31:01 [13]; source organism: Dictyostelium discoideum,0.00143 µM
QLRGEELSF,IC50,HLA-A*02:01 [11]; [20],≥ 87 µM
same,IC50,HLA-B*15:01; [20],16.8 µM
TSADQQSLY,Kd,HLA-A*01:01 [2]; source organism: Influenza A virus (A/swine/Quebec/1192/1986(H1)),0.021 µM
SMVNGVVRL,Kd,HLA-A*02:11,≤ 0.001 µM
same,Kd,HLA-A*02:12,0.013 µM
LIAATAITH,Kd,HLA-A*03:01 [3]; source organism: Rickettsia felis URRWXCal2,0.266 µM
IVYLIDCER,Kd,HLA-A*03:01 [12]; [29],0.939 µM
same,Kd,HLA-A*11:01 [7]; [29],≥ 20 µM
same,Kd,HLA-A*31:01 [13]; source organism: Salmonella enterica subsp. arizonae,0.0883 µM
VDYGLVSKF,IC50,HLA-A*24:02; [19],3.51 µM
same,IC50,HLA-B*15:01; [19],≥ 278 µM
RLCYGGPWK,Kd,HLA-A*03:01 [12]; [30],0.517 µM
same,Kd,HLA-A*11:01 [7]; [30],0.358 µM
same,Kd,HLA-A*31:01 [13]; [30],≥ 20 µM
QLSNTTGRL,IC50,HLA-A*02:01 [11]; [20],4.66 µM
same,IC50,HLA-A*24:02; [20],30.3 µM
same,IC50,HLA-B*15:01; [20],21.8 µM
LEDGIYGIF,Kd,HLA-B*18:01; source organism: Yellow fever virus 17D,0.118 µM
same,Kd,HLA-B*15:42; [31],≥ 5 µM
same,Kd,HLA-B*45:06; [31],≥ 5 µM
same,Kd,HLA-B*83:01; [31],≥ 5 µM
LINDQLIMK,Kd,HLA-A*03:01 [12]; [26],≥ 20 µM
same,Kd,HLA-A*11:01 [7]; [26],0.285 µM
same,Kd,HLA-A*31:01 [13]; [27],≥ 20 µM
PKETFLQSP,IC50,HLA-A*03:01 [14],≥ 174 µM
HNFRAPAPV,Kd,HLA-A*68:02 [15],≤ 0.0001 µM
TIAGVAGLI,IC50,HLA-A*02:01 [11]; [23],6.06 µM
same,IC50,HLA-A*24:02; [23],2.56 µM
same,IC50,HLA-B*15:01; [23],≥ 165 µM
KLNKFISPK,Kd,HLA-A*03:01 [12]; [32],0.222 µM
same,Kd,HLA-A*31:01 [13]; [32],0.026 µM
GPMMCPFLF,Kd,HLA-B*07:02 [1]; [33],0.143 µM
same,Kd,HLA-B*35:01; [33],0.767 µM
same,Kd,HLA-B*51:01; [33],13.5 µM
same,Kd,HLA-B*53:01; [33],0.173 µM
same,Kd,HLA-B*54:01; [33],0.764 µM
MMYTVSLGK,Kd,HLA-A*03:01 [3]; [34],0.0023 µM
same,Kd,HLA-B*15:42; [34],≥ 5 µM
same,Kd,HLA-B*45:06; [34],≥ 5 µM
same,Kd,HLA-B*83:01; [34],≥ 5 µM
GPQSNQRSA,Kd,HLA-B*07:02 [1]; [16],0.365 µM
same,Kd,HLA-B*35:01; [16],9.79 µM
same,Kd,HLA-B*51:01; [16],8.09 µM
same,Kd,HLA-B*53:01; [16],≥ 78.2 µM
same,Kd,HLA-B*54:01; [16],5.92 µM
